Experimental data: paper PMC5041490

Columns and labels:
Assay in all cases: pull-down
His-G5(1–739) W14A = His-G5(1–739) W14A (UniProt Q8TEQ6)
His-G5(1–739) Y15A = His-G5(1–739) Y15A (UniProt Q8TEQ6)
His-G5(1–739) Y474A = His-G5(1–739) Y474A (UniProt Q8TEQ6)
His-G5(1–739) wild type = His-G5(1–739) wild type (UniProt Q8TEQ6)
Chain of His-G5(1–739) wild type (Q8TEQ6 1-739): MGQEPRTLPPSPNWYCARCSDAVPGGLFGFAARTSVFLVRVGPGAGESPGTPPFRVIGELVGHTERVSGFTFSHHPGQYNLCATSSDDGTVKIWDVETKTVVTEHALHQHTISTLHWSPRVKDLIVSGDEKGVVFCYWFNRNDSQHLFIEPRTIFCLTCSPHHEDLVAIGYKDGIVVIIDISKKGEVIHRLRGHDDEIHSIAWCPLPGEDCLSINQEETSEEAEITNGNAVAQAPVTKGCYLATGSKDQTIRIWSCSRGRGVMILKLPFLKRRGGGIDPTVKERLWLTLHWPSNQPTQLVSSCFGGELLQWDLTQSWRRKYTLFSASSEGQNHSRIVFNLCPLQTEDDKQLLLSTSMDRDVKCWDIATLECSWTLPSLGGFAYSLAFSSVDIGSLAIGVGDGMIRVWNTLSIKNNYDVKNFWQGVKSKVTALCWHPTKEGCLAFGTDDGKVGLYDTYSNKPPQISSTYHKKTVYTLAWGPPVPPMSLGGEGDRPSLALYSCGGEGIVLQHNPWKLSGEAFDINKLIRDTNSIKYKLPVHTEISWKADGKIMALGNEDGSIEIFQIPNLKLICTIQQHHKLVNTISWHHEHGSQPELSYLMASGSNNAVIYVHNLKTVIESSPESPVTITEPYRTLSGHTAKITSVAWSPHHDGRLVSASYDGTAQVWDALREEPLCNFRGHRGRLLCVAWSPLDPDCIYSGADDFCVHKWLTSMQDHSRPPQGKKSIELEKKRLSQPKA

Chain of His-G5(1–739) Y15A (Q8TEQ6 1-739 Y15A): as the sequence (Q8TEQ6 1-739) above, with Y15A counted along it
Chain of His-G5(1–739) W14A (Q8TEQ6 1-739 W14A): as the sequence (Q8TEQ6 1-739) above, with W14A counted along it
Chain of His-G5(1–739) Y474A (Q8TEQ6 1-739 Y474A): as the sequence (Q8TEQ6 1-739) above, with Y474A counted along it

fold P0 signal over the beads-ribosome background (His-G5(1–739) W14A): 13.8 fold | fold P0 signal over the beads-ribosome background (His-G5(1–739) Y15A): 14.4 fold | fold P0 signal over the beads-ribosome background (His-G5(1–739) Y474A): 3 fold | fold P0 signal over the control (beads with 80S, no His protein) (His-G5(1–739) wild type): 38.8 fold
Substance: 80S ribosomes (from UniProt P05388 1-317) (complex)
